± gives the uncertainty stated by the source.
Experiment: self-splicing fitness, log relative to wild type (ln ratio); higher = more splicing; Tetrahymena group I intron in knt gene, E. coli kanamycin selection, DiMSum; sequences stand for … in CUCUCU…GGAGGGAAAAGUUAUCAGGCAUGCACCUGGUAGCUAGUCUUUAAACCAAUAGAUUGCAUCGGUUUAAAAGGCAAGACCGUCAAAUUGCGGGAAAGGGGUCAACAGCCGUUCAGUACCAAGUCUCAGGGGAAACUUUGAGAUGGCCUUGCAAAGGGUAUGGUAAUAAGCUGACGGACAUGGUCCUAACCACGCAGCCAAGUCCUAAGUCAACAGAUCUUCUGUUGAUAUGGAUGCAGUUCACAGACUAAAUGUCGGUCGGGGAAGAUGUAUUCUUCUCAUAAGAUAUAGUCGGACCUCUCCUUAAUGGGAGCUAGCGGAUGAAGUGAUGCAACACUGGAGCCGCUGGGAACUAAUUUGUAUGCGAAAGUAUAUUGAUUAGUUUUGGAGUACUCGUGGUCG
Summary of the method: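 The eight P1ex-region nucleotides of an intron in the knt kanamycin-resistance gene on pET-22b(+) were all randomised and the library put into E. coli BL21(DE3). Six replicate transformations were grown overnight at 37°C or 30°C on LB agar with or without 25 μg/mL kanamycin, together with 100 μg/mL carbenicillin, 50 μM IPTG and 0.2% rhamnose. Colonies were pooled and amplicon-sequenced on an Illumina HiSeq 2500. Fitness from DiMSum is the error-weighted combination of wild-type-normalised replicate fold changes, kanamycin over none.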

| Sequence | self-splicing fitness (ln) (30 °C) | self-splicing fitness (ln) (37 °C) |
| --- | --- | --- |
| GGCUAGCAAUAUUACGGUCU | -2.92 ± 0.44 | -0.649 ± 0.21 |
| GGCUAGCAAUAUUACGGUGC | -1.49 ± 0.19 | -0.767 ± 0.2 |
| GGCUAGCAAUAUUACGUCGC | -1.5 ± 0.28 | -0.438 ± 0.22 |
| GGCUAGCAAUAUUACGUGCG | -0.139 ± 0.099 | 0.371 ± 0.15 |
| GGCUAGCAAUAUUACGUUCG | -0.933 ± 0.097 | -0.427 ± 0.12 |
| GGGAAGCAAUAUUACGAAAG | – | -2.48 ± 0.41 |
| GGGAAGCAAUAUUACGAACU | -2.22 ± 0.26 | 1.13 ± 0.33 |
| GGGAAGCAAUAUUACGAGUC | -2.56 ± 0.17 | -1.36 ± 0.16 |
| GGGAAGCAAUAUUACGAUAU | -0.722 ± 0.15 | -0.709 ± 0.23 |
| GGGAAGCAAUAUUACGAUCC | -2.12 ± 0.22 | -1.11 ± 0.35 |
| GGGAAGCAAUAUUACGAUUC | -0.445 ± 0.14 | -0.851 ± 0.16 |
| GGGAAGCAAUAUUACGCAAC | -3.36 ± 0.17 | -1.03 ± 0.18 |
| GGGAAGCAAUAUUACGCAUA | -2.35 ± 0.18 | -1.25 ± 0.14 |
| GGGAAGCAAUAUUACGCCGA | -1.78 ± 0.17 | -0.238 ± 0.12 |
| GGGAAGCAAUAUUACGCUAC | -2.26 ± 0.3 | -1.84 ± 0.46 |
| GGGAAGCAAUAUUACGCUGU | -2.38 ± 0.14 | -1.45 ± 0.16 |
| GGGAAGCAAUAUUACGGAAA | -1.4 ± 0.32 | -1.41 ± 0.36 |
| GGGAAGCAAUAUUACGGGGU | – | -2.7 ± 0.34 |
| GGGAAGCAAUAUUACGGGUC | -2.67 ± 0.3 | -2.08 ± 0.33 |
| GGGAAGCAAUAUUACGGUGG | -3.18 ± 0.24 | -2 ± 0.24 |
| GGGAAGCAAUAUUACGUCUA | 0.132 ± 0.17 | -0.25 ± 0.18 |
| GGGAAGCAAUAUUACGUCUU | -0.577 ± 0.09 | -0.159 ± 0.13 |
| GGGAAGCAAUAUUACGUGGC | -2.16 ± 0.36 | -2.73 ± 0.31 |
| GGGCAGCAAUAUUACGAAAU | -1.42 ± 0.25 | -1.24 ± 0.22 |
| GGGCAGCAAUAUUACGAAGC | -1.64 ± 0.077 | -0.939 ± 0.09 |
| GGGCAGCAAUAUUACGAAUA | – | 0.108 ± 0.17 |

| Sequence | self-splicing fitness (ln) (30 °C) | self-splicing fitness (ln) (37 °C) |
| --- | --- | --- |
| GGGCAGCAAUAUUACGACCG | -0.512 ± 0.14 | 0.369 ± 0.17 |
| GGGCAGCAAUAUUACGACGA | -0.804 ± 0.11 | -0.442 ± 0.12 |
| GGGCAGCAAUAUUACGACGC | 0.36 ± 0.13 | -0.0449 ± 0.18 |
| GGGCAGCAAUAUUACGAGGC | -2.26 ± 0.29 | -2.9 ± 0.37 |
| GGGCAGCAAUAUUACGAUAA | -2.67 ± 0.21 | -1.75 ± 0.18 |
| GGGCAGCAAUAUUACGAUCC | -1.89 ± 0.42 | -0.374 ± 0.37 |
| GGGCAGCAAUAUUACGCAGA | -1.43 ± 0.095 | -0.514 ± 0.1 |
| GGGCAGCAAUAUUACGCAUG | -1.36 ± 0.1 | -0.482 ± 0.12 |
| GGGCAGCAAUAUUACGCCUU | -3.55 ± 0.29 | -2.13 ± 0.22 |
| GGGCAGCAAUAUUACGCGGU | -3.4 ± 0.19 | -1.77 ± 0.27 |
| GGGCAGCAAUAUUACGCUCU | -3.55 ± 0.44 | – |
| GGGCAGCAAUAUUACGGAAA | -2.77 ± 0.21 | -2.26 ± 0.19 |
| GGGCAGCAAUAUUACGGCUG | -2.27 ± 0.15 | -1.8 ± 0.18 |
| GGGCAGCAAUAUUACGGGCA | -2.14 ± 0.13 | -0.0115 ± 0.09 |
| GGGCAGCAAUAUUACGGGCU | -3.06 ± 0.14 | -2.04 ± 0.18 |
| GGGCAGCAAUAUUACGGUCU | -3.22 ± 0.26 | -1.03 ± 0.24 |
| GGGCAGCAAUAUUACGUCAC | – | -1.18 ± 0.42 |
| GGGCAGCAAUAUUACGUCCC | -2.38 ± 0.46 | – |
| GGGCAGCAAUAUUACGUGUA | -2.19 ± 0.15 | -0.515 ± 0.12 |
| GGGCAGCAAUAUUACGUUCU | -2.35 ± 0.19 | -1.2 ± 0.14 |
| GGGCAGCAAUAUUACGUUGG | -3.05 ± 0.16 | -1.65 ± 0.15 |
| GGGGAGCAAUAUUACGACCG | -1.02 ± 0.41 | – |
| GGGGAGCAAUAUUACGAGGU | -3.44 ± 0.22 | -1.82 ± 0.26 |
| GGGGAGCAAUAUUACGCAGG | – | -2.08 ± 0.46 |
| GGGGAGCAAUAUUACGCAGU | – | -1.35 ± 0.36 |
| GGGGAGCAAUAUUACGCAUU | -3.09 ± 0.27 | -1.93 ± 0.21 |

| Sequence | self-splicing fitness (ln) (30 °C) | self-splicing fitness (ln) (37 °C) |
| --- | --- | --- |
| GGGGAGCAAUAUUACGCCUU | – | -0.939 ± 0.35 |
| GGGGAGCAAUAUUACGCGGA | -2.24 ± 0.32 | -2.59 ± 0.36 |
| GGGGAGCAAUAUUACGGAAC | – | -2.95 ± 0.26 |
| GGGGAGCAAUAUUACGGGCA | -2.87 ± 0.34 | -1.47 ± 0.26 |
| GGGGAGCAAUAUUACGUAUC | -2.03 ± 0.2 | -2.19 ± 0.37 |
| GGGGAGCAAUAUUACGUCUC | -1.64 ± 0.4 | – |
| GGGGAGCAAUAUUACGUCUU | -1.91 ± 0.12 | -0.96 ± 0.18 |
| GGGGAGCAAUAUUACGUGGA | -2.04 ± 0.35 | -2.48 ± 0.39 |
| GGGGAGCAAUAUUACGUGUU | -3.92 ± 0.35 | -2.29 ± 0.27 |
| GGGGAGCAAUAUUACGUUCG | -2.01 ± 0.18 | -0.941 ± 0.16 |
| GGGUAGCAAUAUUACGAAGA | -1.72 ± 0.21 | -1.62 ± 0.21 |
| GGGUAGCAAUAUUACGAAUU | -1.04 ± 0.084 | -0.438 ± 0.11 |
| GGGUAGCAAUAUUACGACAG | -2.84 ± 0.2 | -1.9 ± 0.21 |
| GGGUAGCAAUAUUACGACCU | -2.3 ± 0.36 | – |
| GGGUAGCAAUAUUACGACGG | – | -1.18 ± 0.44 |
| GGGUAGCAAUAUUACGAGCA | -0.991 ± 0.2 | 0.0569 ± 0.17 |
| GGGUAGCAAUAUUACGAUUG | -1.63 ± 0.23 | -2.13 ± 0.25 |
| GGGUAGCAAUAUUACGCAUA | – | -0.676 ± 0.24 |
| GGGUAGCAAUAUUACGCAUG | -1.68 ± 0.18 | -2.73 ± 0.32 |
| GGGUAGCAAUAUUACGCCAG | – | -2.81 ± 0.47 |
| GGGUAGCAAUAUUACGCCAU | -2.4 ± 0.26 | -1.32 ± 0.19 |
| GGGUAGCAAUAUUACGCGGG | -2.2 ± 0.26 | -2.42 ± 0.23 |
| GGGUAGCAAUAUUACGGCGA | -0.516 ± 0.1 | 0.326 ± 0.12 |
| GGGUAGCAAUAUUACGGCUA | -0.886 ± 0.24 | -1.24 ± 0.22 |
| GGGUAGCAAUAUUACGGGAC | -2.79 ± 0.2 | -0.633 ± 0.13 |
| GGGUAGCAAUAUUACGGUCA | 0.229 ± 0.18 | -0.659 ± 0.18 |

| Sequence | self-splicing fitness (ln) (30 °C) | self-splicing fitness (ln) (37 °C) |
| --- | --- | --- |
| GGGUAGCAAUAUUACGUAAA | -0.962 ± 0.13 | -0.0364 ± 0.15 |
| GGGUAGCAAUAUUACGUAGA | -1.89 ± 0.17 | -0.619 ± 0.15 |
| GGGUAGCAAUAUUACGUAUG | – | -1.84 ± 0.19 |
| GGGUAGCAAUAUUACGUUCU | -0.416 ± 0.11 | -0.164 ± 0.13 |
| GGUAAGCAAUAUUACGAAAC | -1.48 ± 0.14 | -0.179 ± 0.12 |
| GGUAAGCAAUAUUACGAAGC | -3.07 ± 0.23 | -0.664 ± 0.23 |
| GGUAAGCAAUAUUACGAAGG | -3.74 ± 0.25 | -2.84 ± 0.25 |
| GGUAAGCAAUAUUACGACCU | -1.81 ± 0.18 | -1.93 ± 0.24 |
| GGUAAGCAAUAUUACGACUG | -0.569 ± 0.12 | -0.0619 ± 0.14 |
| GGUAAGCAAUAUUACGAGAA | -2.48 ± 0.42 | -2.67 ± 0.37 |
| GGUAAGCAAUAUUACGAGCG | 0.017 ± 0.17 | 0.512 ± 0.17 |
| GGUAAGCAAUAUUACGAUCA | -0.121 ± 0.1 | -0.203 ± 0.1 |
| GGUAAGCAAUAUUACGAUGA | -1.83 ± 0.26 | -0.16 ± 0.2 |
| GGUAAGCAAUAUUACGCAUU | -1.86 ± 0.14 | -0.797 ± 0.12 |
| GGUAAGCAAUAUUACGCGAC | -2.04 ± 0.16 | -1.19 ± 0.2 |
| GGUAAGCAAUAUUACGCGUC | -1.95 ± 0.2 | 0.649 ± 0.18 |
| GGUAAGCAAUAUUACGCUAG | -4.34 ± 0.36 | -2.92 ± 0.29 |
| GGUAAGCAAUAUUACGGCCU | -2.34 ± 0.33 | – |
| GGUAAGCAAUAUUACGGCUC | -0.214 ± 0.14 | -0.443 ± 0.16 |
| GGUAAGCAAUAUUACGGUAU | -1.32 ± 0.074 | -1.44 ± 0.11 |
| GGUAAGCAAUAUUACGUAUU | -2.21 ± 0.12 | -1.22 ± 0.13 |
| GGUAAGCAAUAUUACGUCGC | -1.17 ± 0.13 | -0.683 ± 0.13 |
| GGUAAGCAAUAUUACGUGAA | -1.52 ± 0.098 | -1.18 ± 0.14 |

— the supplement of paper PMC7877785
